Test results taken from patent US20250144186A1, “NOVEL THERAPEUTIC USES OF GARDNERELLA ENDOLYSINS” (priority 2022, published 2025).
Several values for one entry are separate records, joined by “and”; a condition that tells them apart may be missing. Equal entries are not always repeated. Where two headings read alike, the source gives them in different places.

Columns and labels:
Gardnerella piotii = test: MIC / MBC99.5 assessment in suspension; format: cell-based
Description: (§1) The minimum inhibitory concentration (MIC), which is a standard measure of the activity of antimicrobials, was determined according to the Clinical and Laboratory Standards Institute protocol (2018) Methods for Antimicrobial Susceptibility Testing of Anaerobic Bacteria (Carpenter et al., 2018). […] Controls for growth in the absence of antimicrobials were also included. OD600 was recorded by a microplate reader (Tecan, Grodig, Austria) after incubation at 37° C. for 48 h or, for some fast-growing strains, after incubation for 24 h. Absence of growth was defined as OD600≤0.14. […] MIC readout and MBC99.5 spotting were performed after 72 h incubation for H2B10B11.
(§2) However, topical intravaginal antibiotic administration is recommended for BV therapy, which allows to reach concentrations of active ingredients in the mg/mL range. […] Abbreviations: n.d., not determined; SJHB, St. Jan Hospital Bruges.
(§3) MIC90 is defined as the MIC value for 90% of the tested strains. For PM-477 (H2B10), the resistance breakpoint is not defined, therefore a “% resistant” is not defined (n.d.).

Gardnerella leopoldii = test: MIC / MBC99.5 assessment in suspension; format: cell-based
Description: as §1, §2, §3

Gardnerella swidsinskii = test: microbe, parasite or virus in culture; format: cell-based; conditions: for MIC before passaging: 48 h incubation
G. piotii biofilm = format: cell-based, Gardnerella piotii
Description: (§4) Gardnerella spp. (see figures for strain specification) was resuspended in brain heart infusion broth supplemented with 2% (w/v) gelatin, 0.5% yeast extract (w/v), 0.1% starch (w/v) and 0.25% glucose (w/v) (sBHIG). Passaged strains were resuspended in unbuffered NYCB supplemented with 1% glucose (w/v) (sNYCB). The OD600 was set to 0.1 (approx. 10^7-10^8 CFU/mL) and the cell suspension was diluted 1:10 in growth medium as input for biofilm formation. A total of 200 μL of the respective bacterial suspensions was added to 96-well flat bottom plates (tissue-culture treated, Sigma-Aldrich). The biofilms were grown under anaerobic conditions at 37° C. for 40 to 72 hours, depending on the isolate. Subsequently, the supernatant was removed, and the biofilm was treated with antimicrobials dissolved in sBHIG (at pH 5 for treatment with PM-477 (H2B10), and unbuffered for treatment with antibiotics) in 100 μL and incubated anaerobically at 37° C. for another 24 hours. After the treatment, the biofilms were washed twice with 200 μL 1x PBS and dissolved by vigorous pipetting (40x up and down). Serial dilutions of the dissolved cells were spotted on chocolate agar plates. The plates were incubated anaerobically for two to three days and the minimum biofilm eradication concentration (MBEC) of the endolysin or the antibiotics in use were calculated.
(§5) Gardnerella dominated biofilms covering the human vaginal epithelial cells are now generally considered as a hallmark of BV. Thus, it was tested how effective antibiotics and PM-477 (H2B10) are in penetrating and killing in vitro pre-formed, 40-72 h old biofilms of various Gardnerella strains.

passaged G. vaginalis = test: MIC on strains passaged with MDZ or MDZ-OH; format: cell-based, Gardnerella vaginalis; conditions: 48 h incubation
Description: as §1, with “H2B10B11. MBC99.5 is the minimum concentration of an antibacterial agent that results in bacterial death of all cells in suspension up to a defined limit of detection, resulting in killing of at least 99.5% of bacteria.” for “H2B10B11.”
The final volume of the reaction was 100 µL and the reactions were performed in triplicate in 384-well plates. The OD600 was measured using a microplate reader (Tecan, Grodig, Austria) to generate timepoint 0 h baseline values. The reactions were incubated anaerobically for 24 h, then the OD600 was measured again, and the MIC was measured as the lowest concentration with OD600<0.14. […] This process was repeated for a maximum of 25 rounds. In each round, the input CFU/mL was determined by quantitative plating.
The susceptibility of Gardnerella strains before and after 8 to 9-times passaging with sub-MIC concentrations of MZD or MDZ-OH is shown in Table 4 below. All MICs determined after 48 h of incubation.

G. vaginalis biofilm = test: MBEC on pre-formed biofilms of ancestor isolates; format: cell-based, Gardnerella vaginalis
Description: as §4, §5

[1] = test system: passaged G. swidsinskii biofilm; test: MBEC on biofilms of passaged strains; format: cell-based, Gardnerella swidsinskii
Description: as §4
All MICs determined after 48 h of incubation.

[2] = test system: MDZ or MDZ-OH passaged Gardnerella strains grown as biofilm; test: MBEC on biofilms of the six passaged strains, summary; format: cell-based, Gardnerella spp.
Description: as §4

[3] = Gardnerella piotii, N=7 strains
[4] = Gardnerella leopoldii, N=3 strains
[5] = Gardnerella swidsinskii, N=4 strains

B1: PM-477: genetically engineered recombinant Gardnerella-specific endolysin, amino acid sequence SEQ ID NO: 1, His-tag cleaved off (protein)
chain: SKRGIDVSEWQGDIDFNAVKASGVEFVIIRAGYGIGCKDKWFEQNYRKAKTCGLDVGAYWYSYANSGFEAAEEAQSCVNMLSGKSFEYPVYFDLEEKSQLNRGRAFCDSLITGFCNKLESCGYYAGFYTSLSTANNLVSAHVRNRYALWIAQWNTHCSYQGSYGLWQYSSSGSVPGVAGRVDMDYAYVDYPSIIKNVGLNGYKNGGSYTAPQISSIDEVAREVINGDWGNGNERKQRLTSAGYDYASVQNKVNELLGVKAYRKSVDELAREVIRGTWGNGSTRKQRLTQAGYDYNAVQKRVNELL
modifications: His-tag cleaved off; H2B10
Which MBC99.5 (Gardnerella piotii; G. piotii (BV049) UGent BV049.1) does the source give for B1 here?
Its MBC99.5 is 1 µg/mL.

And the MIC (Gardnerella piotii; G. piotii (BV049) UGent BV049.1, suspension)?
The MIC was 1 µg/mL.

What about the MBC99.5 (Gardnerella piotii; G. piotii (BV140) UGent BV140.2) of the same molecule?
The MBC99.5 was 2 µg/mL.

And the MIC (Gardnerella piotii; G. piotii (BV140) UGent BV140.2, suspension)?
The MIC was 1 µg/mL.

What about the MBC99.5 (Gardnerella piotii; G. piotii (BV154) UGent BV154.1) of the same molecule?
Its MBC99.5 is 1 µg/mL.

And the MIC (Gardnerella piotii; G. piotii (BV154) UGent BV154.1, suspension)?
The MIC was 0.5 µg/mL.

And the MBC99.5 (Gardnerella piotii; G. piotii (FB041) UGent FB041)?
The MBC99.5 was 1 µg/mL.

And the MIC (Gardnerella piotii; G. piotii (FB041) UGent FB041, suspension)?
The MIC was 0.5 µg/mL.

What about the MBC99.5 (Gardnerella piotii; G. piotii (Gp17) UGent 18.01(T)) of the same molecule?
The MBC99.5 was 4 µg/mL.

What about the MIC (Gardnerella piotii; G. piotii (Gp17) UGent 18.01(T), suspension) of the same molecule?
The MIC was 1 µg/mL.

And the MBC99.5 (Gardnerella piotii; G. piotii (Gp22) UGent 21.28)?
Its MBC99.5 is 2 µg/mL.

And the MIC (Gardnerella piotii; G. piotii (Gp22) UGent 21.28, suspension)?
Its MIC is 1 µg/mL.

And the MBC99.5 (Gardnerella piotii; G. piotii (P80275) UGent P80275)?
The MBC99.5 was 1 µg/mL.

What about the MIC (Gardnerella piotii; G. piotii (P80275) UGent P80275, suspension) of the same molecule?
Its MIC is 0.5 µg/mL.

What about the MIC before passaging (Gardnerella piotii; G. piotii (UGent 18.01T), 48 h incubation) of the same molecule?
The MIC before passaging was 1 µg/mL.

And the MIC90 (Gardnerella piotii; [3])?
Its MIC90 is 1 µg/mL.

And the “MIC Range” value (Gardnerella piotii; [3])?
Its value is 0.5 to 1 µg/mL.

And the MBC99.5 (Gardnerella leopoldii; G. leopoldii (BV13) UGent BV13.2)?
Its MBC99.5 is 2 µg/mL.

What about the MIC (Gardnerella leopoldii; G. leopoldii (BV13) UGent BV13.2, suspension) of the same molecule?
The MIC was 0.5 µg/mL.

And the MBC99.5 (Gardnerella leopoldii; G. leopoldii (BV217) UGent BV217.1)?
Its MBC99.5 is 1 µg/mL.

What about the MIC (Gardnerella leopoldii; G. leopoldii (BV217) UGent BV217.1, suspension) of the same molecule?
The MIC was 0.25 µg/mL.

What about the MBC99.5 (Gardnerella leopoldii; G. leopoldii (Gl11) UGent 09.48) of the same molecule?
The MBC99.5 was 0.5 µg/mL.

And the MIC (Gardnerella leopoldii; G. leopoldii (Gl11) UGent 09.48, suspension)?
The MIC was 0.125 µg/mL.

What about the MIC90 (Gardnerella leopoldii; [4]) of the same molecule?
The MIC90 was 0.5 µg/mL.

What about the “MIC Range” value (Gardnerella leopoldii; [4]) of the same molecule?
Its value is 0.125 to 0.5 µg/mL.

What about the MBC99.5 (Gardnerella swidsinskii; G. swidsinskii (BV7) UGent BV7.1) of the same molecule?
Its MBC99.5 is 0.25 µg/mL.

What about the MIC (Gardnerella swidsinskii; G. swidsinskii (BV7) UGent BV7.1, suspension) of the same molecule?
The MIC was 0.25 µg/mL.

And the MBC99.5 (Gardnerella swidsinskii; G. swidsinskii (BV139) UGent BV139.3)?
The MBC99.5 was 0.125 µg/mL.

What about the MIC before passaging (Gardnerella swidsinskii; G. swidsinskii (GS 9838-1T)) of the same molecule?
Its MIC before passaging is 0.03 µg/mL.

And the MBC99.5 (Gardnerella swidsinskii; G. swidsinskii (Gs23) GS 10234)?
The MBC99.5 was 0.125 µg/mL.

And the MIC (Gardnerella swidsinskii; G. swidsinskii (Gs23) GS 10234, suspension)?
Its MIC is 0.063 µg/mL.

What about the MBC99.5 (Gardnerella swidsinskii; G. swidsinskii (Gs24) GS 9838-1(T)) of the same molecule?
The MBC99.5 was 0.06 µg/mL.

What about the MIC (Gardnerella swidsinskii; G. swidsinskii (Gs24) GS 9838-1(T), suspension) of the same molecule?
Its MIC is 0.03 µg/mL.

What about the MIC before passaging (Gardnerella swidsinskii; G. swidsinskii (UGent BV 7.1)) of the same molecule?
Its MIC before passaging is 0.25 µg/mL.

And the MIC90 (Gardnerella swidsinskii; [5])?
Its MIC90 is 0.25 µg/mL.

And the “MIC Range” value (Gardnerella swidsinskii; [5])?
Its value is 0.03 to 0.25 µg/mL.

And the MBEC (G. piotii biofilm; ancestor G. piotii UGent 18.01, pre-formed biofilm)?
The MBEC was 8 µg/mL.

What about the MBEC (G. piotii biofilm; ancestor G. piotii UGent 21.28, pre-formed biofilm) of the same molecule?
The MBEC was 2 to 8 µg/mL.

And the MIC passaged (passaged G. vaginalis; G. vaginalis (ATCC 14018T) passaged with sub-MIC MDZ)?
The MIC passaged was 0.13 µg/mL.

What about the MIC passaged (passaged G. vaginalis; G. vaginalis (UGent 09.07) passaged 8 times with MDZ-OH) of the same molecule?
The MIC passaged was 0.25 µg/mL.

What about the MIC passaged (passaged G. vaginalis; G. vaginalis (UGent BV50) passaged with MDZ-OH) of the same molecule?
The MIC passaged was 0.25 µg/mL.

And the “Eradication of biofilm-grown cells (FIG. 1)” value (G. vaginalis biofilm; G. vaginalis (ATCC14018), biofilm grown 40 h, treated 24 h)?
The value was “can be eradicated”.

What about the MBEC (G. vaginalis biofilm; ancestor G. vaginalis ATCC14018, pre-formed biofilm, 24 h treatment) of the same molecule?
The MBEC was 32 µg/mL.

What about the MBEC (G. vaginalis biofilm; ancestor G. vaginalis UGent 09.07, pre-formed biofilm) of the same molecule?
Its MBEC is 16 µg/mL.

And the MBEC (G. vaginalis biofilm; ancestor G. vaginalis UGent BV50, pre-formed biofilm)?
Its MBEC is 2 µg/mL.

What about the MBEC (G. vaginalis biofilm; ancestor G. vaginalis UGent BV111.5, pre-formed biofilm) of the same molecule?
Its MBEC is 8 to 32 µg/mL.

And the MBEC (G. vaginalis biofilm; ancestor G. vaginalis UGent FB049, pre-formed biofilm)?
Its MBEC is 0.5 to 2 µg/mL.

And the MBEC passaged ([1]; G. swidsinskii (GS 9838-1T) passaged with MDZ-OH)?
Its MBEC passaged is 2 µg/mL.

What about the MBEC passaged ([1]; G. swidsinskii (UGent BV 7.1) passaged with MDZ-OH) of the same molecule?
Its MBEC passaged is 2 µg/mL.

What about the “Susceptibility of MDZ-passaged strains grown as biofilm (FIG. 4)” value ([2]; 72 h pre-formed biofilms treated for 24 h) of the same molecule?
Its value is “susceptible”.

What about the “MBEC, range over passaged strains” value ([2]; six strains passaged on MDZ or MDZ-OH, pre-formed biofilms, 24 h treatment, listed as PM-477 (H2B10)) of the same molecule?
Its value is 1 to 8 µg/mL and 1 to 4 µg/mL.
